From the domain aggregation screens of Martell et al. (2025)

Test: soluble fraction after stress (log2 fold change); higher = more stays soluble; pooled small domains, quantitative proteomics
Details: stress: 75 degC
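Also: 20 min heating vs room temperature control held 20 min.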

| Sequence | soluble fraction (log2) |
| --- | --- |
| HMVSNRMVYSDFQQKWINNQVESINVNADKMTIEVTTQDEKKYTVYAPSSMIEFLNEQYPKDDIKIEYVAP | 0.153 |
| HMVSPLEKSQSFGSFEISREFARTLGLTSARNWENWAASDSRPINIPYSPNVFYKNKGWIDWSDWLGTE | -0.279 |
| HMVSRQINVIPDDLAGLRLDQALAHLFPQHSRSRLKEWLLEDIIIVQGGPKRPKDIVSGGEIVEIKL | -0.165 |
| HMVSYTLPTLHTGKNWYVDFTAYDPAEQKMKRKKYMLDGISKITERRKRAVDIIATVTARLRSGWNPWA | -2.76 |
| HMVTARMPDLFGLDEATAQRMVSNAGLTLKTEYAYSDQAEGYVFDQTPEANAEVRRGGTVTAMIS | 0.069 |
| HMVTEIDYGAFIKMTEEGNIGEVKIEDNQIVFTDKENKAIYKTGIMPDSDLTQRLYDSGAVFA | 0.128 |
| HMVTEKPLYRDELMDHDTVWVEPISMDSHLRMELRGWYHVKNRFVENEVGQRFYFDFYDIKWLAFTNGP | -5.45 |
| HMVTINTASLEKAIADAKAVVKESYTTDSYNAMKAVLDEAEDLLKEEAQDQDTIDAKTEALNAAIEALVKR | 0.166 |
| HMVTLPLLKRGHTGLPVKALQTLLVLRGMSVDVDGSFGEKTESAVRTFQTAAKILSDGEVGKDTWKALI | -1.56 |
| HMVTPPMVVVDVQGEVKTPGVYHLPTNSRVNDAIKAAGGPKQSADLSYINQARMVKDGEQIYVEKKL | 0.0962 |
| HMVTTDPIADMLTRIRNASSQKHKSVDVPASKEKLAIAQILFEEGYIKSFEEIKEENNQGVIRITLKYTEK | -0.733 |
| HMVTVPNYSDPRQYVEWGNANGITINRAVGDTIASMSGRVQDVRDSNGNSVIGKKVKKGSTVTVYIYFLK | -1.08 |
| HMVTVSAVNITPKGHTTVGFTDRSVNPPSNYYLRVGESADGWTVKDADFDDEIATLEKDGVAITLKL | -0.228 |
| HMVTYELTEDEKFIVSLLEKENSQPIGALKDKSALSGKKWDAAMKGLAKHGLTKVVVDGDNKLVVL | -0.0322 |
| HMVVEDDTVLQAVKQAIEENPEAVSDYFEGKSKALNFLVGQVMRITRGKADPAKTNQMVVEELKNR | 0.237 |
| HMVVMKGKVKWFNKNKGYGFIITDDNKEYFVHWKSIVTNSPRELKVLEQDELVTFDLMETDKGIQAINII | -2.19 |
| HMVVPELNLAQQDVLRALRQRGRATADHLSVDTHRPVSEVMGILLGLEIAEVLYRVEGGWFVPKTAR | -2.39 |
| HMVVSDKIAFSSFLKSVEDGRVVEVEITGNDIRGILSDGTVFNTYAPNDPNLVEKLTSKGVNITALPKE | 0.522 |
| HMVVYQRVHDEILQALKDNVYPVGTLLPPEPELERIYSVSRTTVRRAIAKLSEEGYVQVRQGYGTMVLKN | -3.48 |
| HMWGAYHDGQVVKFPKKVTVYVIDGQYKRPLANEFVLKFLNYKTSDIIIDKDGNLNNYKNGAVVEH | -2.79 |
| HMWMQKILGNYIAARRKELGMTQANLAEKIHVTDKAVSRWERGVGLPDIENLEALAKALEVSLVSLMQGKT | -2.36 |
| HMWNGIVDAGKARQHLMNLSQLGVGRRAVAAASDVAETVLMDIRSGTKTRIRARTERQILAVTPEMA | -2.42 |
| HMWNTADDIKEAIWKLIQSEDPKKPYSDLKISQLLLEKEMKISRRTVAKYRKEMGILGTYSRK | -0.603 |
| HMWQPIKLDRGDWQNSLQVGDRVFVRGIPRPVEILSAVDEENNIEVLMGTMRAKIPVYQLDKPAENFIDTT | -0.362 |
| HMWQVVEVDYGTFMSMTEDGQVGRVEIQEQENLILFTDQEETTVYKTAMVDDPDLTARLHDAGIPFYGQE | -1.06 |
| HMWSGEPFLDELRHADTLLETDPEAALAEYRALADKGSAAAMMALGNAYASGSHVARDEGEAEHWYRRAA | 0.0377 |
| HMWSLLVILQLREGGQRFSQLQRAIPDISQRMLTQTLRKLERDGLVSRKVTPSTPPRVDYAITELGH | -0.841 |
| HMWSQEPEYRPLYNSMDGFDAGQVVEMLQQSRIDYKVEPNSGALLVRSEDLADARLRLASAGISP | 0.0488 |

| Sequence | soluble fraction (log2) |
| --- | --- |
| HMYAEVTITIEKGMTSDSVSKLLYKAGIVDDAKEFNNYIIKAGKSTKILIGEFTIQKGASYDDIIKIIA | -3.51 |
| HMYAGTVTQVKNNKVMLEFDGETVNVGDQFFILNSDGKKVAIVEITAAKNKKALANVLKGKAVVDGTTQAK | -0.476 |
| HMYAVDTIHKGTITEMTDKGAVVSLGDNIDGFAPARQLVKEDGTTLKLGDTADFKVIEFSKATKRITLSH | 0.58 |
| HMYAVQKGDTLKKIADQFGISVDTIKWANDMKGDALSIDQELKIP | 0.414 |
| HMYDAEAINKFFDIENWDFGETFYFQELSAYIMNQLSPKLVTILIVPRQTTQAFGSLFEIKSEPDEIFAS | 0.172 |
| HMYDDEELDVLAHRPIESYTDAELAMLREVAETLLETDYEGWLKSLSMRGILLPPEILQLVT | -0.269 |
| HMYDDLEPFDANGRLRWSDKELILAFGRHRGVTLQTLELNDPGYLRWLLSGNGPLEQQDRKRLEDILES | -1.45 |
| HMYDEKTLRKAVLDYVRDNDDGRLDLMKIDSYLTSRYGNIDYAALGYNRLSMFISSFPELRRNSNYVTLRK | -1.44 |
| HMYEDNERNLYSVVINFLNEHKIKISREAINLVINRSSGDKHNLKQELNKILNYSFSNKNITYETIEKLSN | -1.83 |
| HMYEDNERSLVPIVQNFLKEKKILLSNQSINLIVQRSGGDRINLYNELQKIESFSKNQKKIDIGDIIKLTN | -1.03 |
| HMYEDSNQSLNFFAIKFIKEKNIKISQETTNLIVERARGDRGNLINELQKLEALSLTRKKITQEDVFNLTN | -1.99 |
| HMYEGLILINKYDSLVSAKLETNKIKSLGLFFEDMEEKIAVFSGPFKNNDINLKLDFLIRNGYLDAKIY | -4.87 |
| HMYEIEDIKEKLLDLLANSKTGFSGLEISNRLGINRITVSKYLNIFSAEGLIKQKNIGNVIIWFVEDGIE | -0.509 |
| HMYEVDGLGIRIAQLRKKQDLTQEAFARTLGVSPQAVSKWETGIGYPDITLLPQIAKELGVSIDQLFGRN | -0.307 |
| HMYFGDADGNKKVDAADALYLKRHLADWEDYRELPQKTNVSWMDEASPANLMILERHIAGWKDYEMLPYT | -0.425 |
| HMYFMDEETWESKKTLLNDWYEANPEYADRRAISDGLFKIGDLQPDFRRRHWGSIGVIFADIPNSPMG | -0.502 |
| HMYGHKLDSYESYVVSELRRWPFLSAPQIHDRLKEHFSDLPLVTPKTVFNFVNRLRLTHSLPKE | -3.38 |
| HMYGLSFLIGFTVVDRTYGDIGKVTAIDDSTVNTLMAVGDRLIPAQEAFITKIDNTKKIIYTQLPEGLL | -1.17 |
| HMYGTQTVNRGAVQPGMLVKHKDSTWTASANARGRLYLHRGVEMTYTRDLLVEVYLNGLGNGL | 0.158 |
| HMYHADLIGLRVETAAGEKLGTVKAVHNFGAGDVIEITGAEDKDGLMVPFTAEVVPEVDIENGRIVVS | -0.0762 |
| HMYHKKEKAQAANIEERIMILLSDGKHHHITEIKAIYVDEVITLNILEEMLAEEKVIIEGDMIMLVE | -3.64 |
| HMYKLTTQRRAILDVIIENHDKHLNPEEIYDIVKEKYPEIGIATVYRTLQLLEKLNIIYRLNFDDGYNRYE | -2.87 |
| HMYKLTYVVDGEVYLEETVSYGSKIAAAPAPEKEGYTFSGWEGLPEVMPAKDVTVSGSFTVN | -0.69 |
| HMYKMKDRIKKIMEMQRTTQQDFADQLKIAPATLSSIFTGRTRPTLAIVDAIKSRFPQISTDWLMFGKGDM | -0.151 |
| HMYKNAFITYDNNLYYLGSDSKMAIGWQSIGGNTYYFRNWGGMITGKQVIDGKTYVFDEDGKLVQSPD | -1.25 |
| HMYLNYQTIGKRIRLLRKQQHLTQMTLAEMVDKSPTYISLVENGQKGPSLETLIDVANALKVTMDVLLAEY | -4.94 |
| HMYLPPYMEVRAVMILDGKPMALMYIEGEGDGLIVSPGYKFDNGKGKVVSITPTKVVVLWAGTKMELG | -3.37 |
